B1: library; numbered along this chain (parent)
chain: MAAAAAAAAEQQSSNGPVKKSMREKAVERRSVNKEHNSNFKAGYIPIDEDRLHKTGLRGRKGNLAICVIILLFILAVINLIITLVIWAVIRIGPNGCDSMEFHESGLLRFKQVSDMGVIHPLYKSTVGGRRNENLVITGNNQPIVFQQGTTKLSVENNKTSITSDIGMQFFDPRTQNILFSTDYETHEFHLPSGVKSLNVQKASTERITSNATSDLNIKVDGRAIVRGNEGVFIMGKTIEFHMGGNMELKAENSIILNGSVMVSTTRLPSSSSGDQLGSGDWVRYKLCMCADGTLFKVQVTSQNMGCQISDNPCGNTH

Variants of: B1
Assay: SGCB cell-surface expression functional score (HA stain, bin4 vs bin1, normalised to synonymous) (log10 ratio); higher = more cell-surface SGCB (functional)
Method: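 Deep mutational scan of full-length human SGCB (YFP-SGCB-HA, NNN codon sublibraries A-F) delivered by lentivirus at low MOI into ADG-HEK293 cells stably expressing SGCA, SGCD and SGCG. YFP-positive cells were stained for surface HA on unpermeabilized cells and FACS-sorted into bins. The functional score is log10(frequency in high bin 4 / frequency in low bin 1), normalised per chunk so that synonymous variants have mean 0 and SD 0.5. Scores are the median over codons and over duplicate biological replicates; scores below -0.5 are called non-functional. Scale: negative means deleterious.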

Row | Variant | SGCB cell-surface expression functional score (log10)
1 | MAAAAAAAAEQQSSNGPVKKSMREKAVERRSVNKEHNSNFKAGYIPIDEDRLHKTELRGRKGNLAICVIILLFILAVINLIITLVIWAVIRIGPNGCDSMEFHESGLLRFKQVSDMGVIHPLYKSTVGGRRNENLVITGNNQPIVFQQGTTKLSVENNKTSITSDIGMQFFDPRTQNILFSTDYETHEFHLPSGVKSLNVQKASTERITSNATSDLNIKVDGRAIVRGNEGVFIMGKTIEFHMGGNMELKAENSIILNGSVMVSTTRLPSSSSGDQLGSGDWVRYKLCMCADGTLFKVQVTSQNMGCQISDNPCGNTH [G56E] | -0.3
2 | MAAAAAAAAEQQSSNGPVKKSMREKAVERRSVNKEHNSNFKAGYIPIDEDRLHKTFLRGRKGNLAICVIILLFILAVINLIITLVIWAVIRIGPNGCDSMEFHESGLLRFKQVSDMGVIHPLYKSTVGGRRNENLVITGNNQPIVFQQGTTKLSVENNKTSITSDIGMQFFDPRTQNILFSTDYETHEFHLPSGVKSLNVQKASTERITSNATSDLNIKVDGRAIVRGNEGVFIMGKTIEFHMGGNMELKAENSIILNGSVMVSTTRLPSSSSGDQLGSGDWVRYKLCMCADGTLFKVQVTSQNMGCQISDNPCGNTH [G56F] | 0.28
3 | MAAAAAAAAEQQSSNGPVKKSMREKAVERRSVNKEHNSNFKAGYIPIDEDRLHKTPLRGRKGNLAICVIILLFILAVINLIITLVIWAVIRIGPNGCDSMEFHESGLLRFKQVSDMGVIHPLYKSTVGGRRNENLVITGNNQPIVFQQGTTKLSVENNKTSITSDIGMQFFDPRTQNILFSTDYETHEFHLPSGVKSLNVQKASTERITSNATSDLNIKVDGRAIVRGNEGVFIMGKTIEFHMGGNMELKAENSIILNGSVMVSTTRLPSSSSGDQLGSGDWVRYKLCMCADGTLFKVQVTSQNMGCQISDNPCGNTH [G56P] | 0.22
4 | MAAAAAAAAEQQSSNGPVKKSMREKAVERRSVNKEHNSNFKAGYIPIDEDRLHKTNLRGRKGNLAICVIILLFILAVINLIITLVIWAVIRIGPNGCDSMEFHESGLLRFKQVSDMGVIHPLYKSTVGGRRNENLVITGNNQPIVFQQGTTKLSVENNKTSITSDIGMQFFDPRTQNILFSTDYETHEFHLPSGVKSLNVQKASTERITSNATSDLNIKVDGRAIVRGNEGVFIMGKTIEFHMGGNMELKAENSIILNGSVMVSTTRLPSSSSGDQLGSGDWVRYKLCMCADGTLFKVQVTSQNMGCQISDNPCGNTH [G56N] | -0.1
5 | MAAAAAAAAEQQSSNGPVKKSMREKAVERRSVNKEHNSNFKAGYIPIDEDRLHKTKLRGRKGNLAICVIILLFILAVINLIITLVIWAVIRIGPNGCDSMEFHESGLLRFKQVSDMGVIHPLYKSTVGGRRNENLVITGNNQPIVFQQGTTKLSVENNKTSITSDIGMQFFDPRTQNILFSTDYETHEFHLPSGVKSLNVQKASTERITSNATSDLNIKVDGRAIVRGNEGVFIMGKTIEFHMGGNMELKAENSIILNGSVMVSTTRLPSSSSGDQLGSGDWVRYKLCMCADGTLFKVQVTSQNMGCQISDNPCGNTH [G56K] | 0.41
6 | MAAAAAAAAEQQSSNGPVKKSMREKAVERRSVNKEHNSNFKAGYIPIDEDRLHKTILRGRKGNLAICVIILLFILAVINLIITLVIWAVIRIGPNGCDSMEFHESGLLRFKQVSDMGVIHPLYKSTVGGRRNENLVITGNNQPIVFQQGTTKLSVENNKTSITSDIGMQFFDPRTQNILFSTDYETHEFHLPSGVKSLNVQKASTERITSNATSDLNIKVDGRAIVRGNEGVFIMGKTIEFHMGGNMELKAENSIILNGSVMVSTTRLPSSSSGDQLGSGDWVRYKLCMCADGTLFKVQVTSQNMGCQISDNPCGNTH [G56I] | 0.26
7 | MAAAAAAAAEQQSSNGPVKKSMREKAVERRSVNKEHNSNFKAGYIPIDEDRLHKTMLRGRKGNLAICVIILLFILAVINLIITLVIWAVIRIGPNGCDSMEFHESGLLRFKQVSDMGVIHPLYKSTVGGRRNENLVITGNNQPIVFQQGTTKLSVENNKTSITSDIGMQFFDPRTQNILFSTDYETHEFHLPSGVKSLNVQKASTERITSNATSDLNIKVDGRAIVRGNEGVFIMGKTIEFHMGGNMELKAENSIILNGSVMVSTTRLPSSSSGDQLGSGDWVRYKLCMCADGTLFKVQVTSQNMGCQISDNPCGNTH [G56M] | -0.31
8 | MAAAAAAAAEQQSSNGPVKKSMREKAVERRSVNKEHNSNFKAGYIPIDEDRLHKTCLRGRKGNLAICVIILLFILAVINLIITLVIWAVIRIGPNGCDSMEFHESGLLRFKQVSDMGVIHPLYKSTVGGRRNENLVITGNNQPIVFQQGTTKLSVENNKTSITSDIGMQFFDPRTQNILFSTDYETHEFHLPSGVKSLNVQKASTERITSNATSDLNIKVDGRAIVRGNEGVFIMGKTIEFHMGGNMELKAENSIILNGSVMVSTTRLPSSSSGDQLGSGDWVRYKLCMCADGTLFKVQVTSQNMGCQISDNPCGNTH [G56C] | -0.17
9 | MAAAAAAAAEQQSSNGPVKKSMREKAVERRSVNKEHNSNFKAGYIPIDEDRLHKTRLRGRKGNLAICVIILLFILAVINLIITLVIWAVIRIGPNGCDSMEFHESGLLRFKQVSDMGVIHPLYKSTVGGRRNENLVITGNNQPIVFQQGTTKLSVENNKTSITSDIGMQFFDPRTQNILFSTDYETHEFHLPSGVKSLNVQKASTERITSNATSDLNIKVDGRAIVRGNEGVFIMGKTIEFHMGGNMELKAENSIILNGSVMVSTTRLPSSSSGDQLGSGDWVRYKLCMCADGTLFKVQVTSQNMGCQISDNPCGNTH [G56R] | 0.14
10 | MAAAAAAAAEQQSSNGPVKKSMREKAVERRSVNKEHNSNFKAGYIPIDEDRLHKTHLRGRKGNLAICVIILLFILAVINLIITLVIWAVIRIGPNGCDSMEFHESGLLRFKQVSDMGVIHPLYKSTVGGRRNENLVITGNNQPIVFQQGTTKLSVENNKTSITSDIGMQFFDPRTQNILFSTDYETHEFHLPSGVKSLNVQKASTERITSNATSDLNIKVDGRAIVRGNEGVFIMGKTIEFHMGGNMELKAENSIILNGSVMVSTTRLPSSSSGDQLGSGDWVRYKLCMCADGTLFKVQVTSQNMGCQISDNPCGNTH [G56H] | 0.15
11 | MAAAAAAAAEQQSSNGPVKKSMREKAVERRSVNKEHNSNFKAGYIPIDEDRLHKTDLRGRKGNLAICVIILLFILAVINLIITLVIWAVIRIGPNGCDSMEFHESGLLRFKQVSDMGVIHPLYKSTVGGRRNENLVITGNNQPIVFQQGTTKLSVENNKTSITSDIGMQFFDPRTQNILFSTDYETHEFHLPSGVKSLNVQKASTERITSNATSDLNIKVDGRAIVRGNEGVFIMGKTIEFHMGGNMELKAENSIILNGSVMVSTTRLPSSSSGDQLGSGDWVRYKLCMCADGTLFKVQVTSQNMGCQISDNPCGNTH [G56D] | -0.5
12 | MAAAAAAAAEQQSSNGPVKKSMREKAVERRSVNKEHNSNFKAGYIPIDEDRLHKTQLRGRKGNLAICVIILLFILAVINLIITLVIWAVIRIGPNGCDSMEFHESGLLRFKQVSDMGVIHPLYKSTVGGRRNENLVITGNNQPIVFQQGTTKLSVENNKTSITSDIGMQFFDPRTQNILFSTDYETHEFHLPSGVKSLNVQKASTERITSNATSDLNIKVDGRAIVRGNEGVFIMGKTIEFHMGGNMELKAENSIILNGSVMVSTTRLPSSSSGDQLGSGDWVRYKLCMCADGTLFKVQVTSQNMGCQISDNPCGNTH [G56Q] | -0.39
13 | MAAAAAAAAEQQSSNGPVKKSMREKAVERRSVNKEHNSNFKAGYIPIDEDRLHKTLLRGRKGNLAICVIILLFILAVINLIITLVIWAVIRIGPNGCDSMEFHESGLLRFKQVSDMGVIHPLYKSTVGGRRNENLVITGNNQPIVFQQGTTKLSVENNKTSITSDIGMQFFDPRTQNILFSTDYETHEFHLPSGVKSLNVQKASTERITSNATSDLNIKVDGRAIVRGNEGVFIMGKTIEFHMGGNMELKAENSIILNGSVMVSTTRLPSSSSGDQLGSGDWVRYKLCMCADGTLFKVQVTSQNMGCQISDNPCGNTH [G56L] | 0.23
14 | MAAAAAAAAEQQSSNGPVKKSMREKAVERRSVNKEHNSNFKAGYIPIDEDRLHKTALRGRKGNLAICVIILLFILAVINLIITLVIWAVIRIGPNGCDSMEFHESGLLRFKQVSDMGVIHPLYKSTVGGRRNENLVITGNNQPIVFQQGTTKLSVENNKTSITSDIGMQFFDPRTQNILFSTDYETHEFHLPSGVKSLNVQKASTERITSNATSDLNIKVDGRAIVRGNEGVFIMGKTIEFHMGGNMELKAENSIILNGSVMVSTTRLPSSSSGDQLGSGDWVRYKLCMCADGTLFKVQVTSQNMGCQISDNPCGNTH [G56A] | 0.21
15 | MAAAAAAAAEQQSSNGPVKKSMREKAVERRSVNKEHNSNFKAGYIPIDEDRLHKWGLRGRKGNLAICVIILLFILAVINLIITLVIWAVIRIGPNGCDSMEFHESGLLRFKQVSDMGVIHPLYKSTVGGRRNENLVITGNNQPIVFQQGTTKLSVENNKTSITSDIGMQFFDPRTQNILFSTDYETHEFHLPSGVKSLNVQKASTERITSNATSDLNIKVDGRAIVRGNEGVFIMGKTIEFHMGGNMELKAENSIILNGSVMVSTTRLPSSSSGDQLGSGDWVRYKLCMCADGTLFKVQVTSQNMGCQISDNPCGNTH [T55W] | -0.27
16 | MAAAAAAAAEQQSSNGPVKKSMREKAVERRSVNKEHNSNFKAGYIPIDEDRLHKYGLRGRKGNLAICVIILLFILAVINLIITLVIWAVIRIGPNGCDSMEFHESGLLRFKQVSDMGVIHPLYKSTVGGRRNENLVITGNNQPIVFQQGTTKLSVENNKTSITSDIGMQFFDPRTQNILFSTDYETHEFHLPSGVKSLNVQKASTERITSNATSDLNIKVDGRAIVRGNEGVFIMGKTIEFHMGGNMELKAENSIILNGSVMVSTTRLPSSSSGDQLGSGDWVRYKLCMCADGTLFKVQVTSQNMGCQISDNPCGNTH [T55Y] | 0.15
17 | MAAAAAAAAEQQSSNGPVKKSMREKAVERRSVNKEHNSNFKAGYIPIDEDRLHKSGLRGRKGNLAICVIILLFILAVINLIITLVIWAVIRIGPNGCDSMEFHESGLLRFKQVSDMGVIHPLYKSTVGGRRNENLVITGNNQPIVFQQGTTKLSVENNKTSITSDIGMQFFDPRTQNILFSTDYETHEFHLPSGVKSLNVQKASTERITSNATSDLNIKVDGRAIVRGNEGVFIMGKTIEFHMGGNMELKAENSIILNGSVMVSTTRLPSSSSGDQLGSGDWVRYKLCMCADGTLFKVQVTSQNMGCQISDNPCGNTH [T55S] | 0.22
18 | MAAAAAAAAEQQSSNGPVKKSMREKAVERRSVNKEHNSNFKAGYIPIDEDRLHKRGLRGRKGNLAICVIILLFILAVINLIITLVIWAVIRIGPNGCDSMEFHESGLLRFKQVSDMGVIHPLYKSTVGGRRNENLVITGNNQPIVFQQGTTKLSVENNKTSITSDIGMQFFDPRTQNILFSTDYETHEFHLPSGVKSLNVQKASTERITSNATSDLNIKVDGRAIVRGNEGVFIMGKTIEFHMGGNMELKAENSIILNGSVMVSTTRLPSSSSGDQLGSGDWVRYKLCMCADGTLFKVQVTSQNMGCQISDNPCGNTH [T55R] | 0.21
19 | MAAAAAAAAEQQSSNGPVKKSMREKAVERRSVNKEHNSNFKAGYIPIDEDRLHKVGLRGRKGNLAICVIILLFILAVINLIITLVIWAVIRIGPNGCDSMEFHESGLLRFKQVSDMGVIHPLYKSTVGGRRNENLVITGNNQPIVFQQGTTKLSVENNKTSITSDIGMQFFDPRTQNILFSTDYETHEFHLPSGVKSLNVQKASTERITSNATSDLNIKVDGRAIVRGNEGVFIMGKTIEFHMGGNMELKAENSIILNGSVMVSTTRLPSSSSGDQLGSGDWVRYKLCMCADGTLFKVQVTSQNMGCQISDNPCGNTH [T55V] | -0.07

From the supplement of paper PMC10266784
